Test [1] concerns the target AAV8 viral protein 3 (VP3) (adeno-associated virus serotype 8). The test can be described thus: CE-SDS of purified capsids; full particles (FP) separated by DG-UC, denatured with SDS and mercaptoethanol, 60 °C 3 min; VP components detected at 214 nm; VP3 is the sum of VP3 and VP3 clip.
The target is the same in test [2]. The test can be described thus: native MS; orbitrap-based CDMS of empty particles (EP) of AAV8-H4C1, AAV8-FIXp and AAV8-FIXp hFIX mini-intron after buffer exchange into 200 mM ammonium acetate; average VP stoichiometry estimated from the mass distribution by assigning integer stoichiometries (0-60 for each VP) and weighted averaging.
The target is the same in test [3]. The test can be described thus: CE-SDS of purified capsids; empty particles (EP) separated by DG-UC, denatured with SDS and mercaptoethanol, 60 °C 3 min; VP components detected at 214 nm; VP3 is the sum of VP3 and VP3 clip.
Test [4] shares this target. The test can be described thus: native MS; orbitrap-based CDMS of full particles (FP); mass of the genome subtracted from the mass distribution of FP, then VP stoichiometry of the capsid of FP estimated as for EP.
Test [5] shares this target. The test can be described thus: CE-SDS of purified capsids; AAV8-H4C1, not separated into EP and FP by DG-UC: ratio of the mixture; VP3 is the sum of VP3 and VP3 clip.

Several values for one entry are separate records, joined by “and”; a condition that tells them apart may be missing. Equal entries are not always repeated.

Take “AAV8 viral protein 3 (VP3) (natural protein)”: the VP stoichiometry VP1: VP2: VP3 (copies of VP3 in the capsid) was 46.1 and 47.8 in test [1]; 48 in test [2]; 45.4 in test [3]; 51.7 and 44.2 and 51 in test [4]; 47 in test [5].

Turning to “AAV8 viral protein 2 (VP2) (natural protein)”, the VP stoichiometry VP1: VP2: VP3 (copies of VP2 in the capsid) in test [1] was 9.3 and 7.5; in test [2], 9.4; in test [3] it was 9.7 and 9.6; in test [4], 6.6 and 12.3 and 7.1; in test [5], 7.8.

In the case of “AAV8 viral protein 1 (VP1) (natural protein)”, the VP stoichiometry VP1: VP2: VP3 (copies of VP1 in the capsid) in test [1] was 4.6 and 4.7; in test [2], 2.5 and 2.6; in test [3], 4.9 and 5; in test [4], 1.7 and 3.4 and 1.8; in test [5], 5.1.

These data come from publication PMC11503520.
